# Measurements taken from the DeepSol protein solubility set.
# Experiment: soluble on expression in E. coli; label from the status in PepcDB or PDB records
row,Sequence,soluble on expression in E. coli
1,MAKLENPILMAKIGGAQGLRGEVRVSTYTDDPMALGDYGNLVTADGRVFEILEVREGKNVVVVRFRGINDRNAAESLNGLELFIERDNLPDDELDDDEFYYADLEGLEAVDAEGKSYGAVSAVYDFGAGDLLELKGAGRRPALIPFSEAAVLEIDLEAGRILIDPMAAGLIDNPDDKDQNGMSPFGKKLEHHHHHH,not soluble
2,MAKMRRYPAVAGQFYPEGDALIEMLSSFFKDLGEEGTKRTITAGVAPHAGYVFSGFTASRTYKAIYEDGLPEVFVIFGPNHTGLGSPIALYPEGEWITPMGSIKVDSKFAKEIVKRSGIADLDDLAHKYEHSIEVQLPFIQYIAEKAGVEVKIVPITLGIQDEEVSRSLGRSIFEASTSLGRDTIIIASTDFMHYGSFYGYVPFRGRPEELPNMVRDWDMRIIRRILDFDLDGMFSEIREMNHTMCGPGGVGAGIIYSRLMKAKEAELLHYTTSFEVSRSPDAIVGYASIIMKRLEHHHHHH,not soluble
3,MAKMTTLKMKERLEKELQAPNRQFSYNRDNDALTVVQSGKKVTLAIPQIIANYENDGDAAVEKIVYYVEEGFRAAAGNVELENNKANVYPVVRATSFPGETKAGEVLLTDDHTAETKIFYAVDLGKSYRFIEESMLKKAQLTHEEIREAAFNNLANLEIPLKKDSVNGNDFYFVRTNDGYDASRLLNEAFLREMREKLTGEMVLAVPHQDVLIIGDIQDNTGYDVLAHMTMDFFADGLVPITSLPFVYNNGKLEPIFIMAKNRLKE,not soluble
4,MAKNHYDILRRHIRSEDLLETPEFGSGSRIVEEYWIQEPFTKAIIVENEDEFRNVYYALEPTVSSEEAEVISALYDDLKKILVLQDVSVDLEERAEVLVRAIEKLSKEYAVSFTDNFYSRMLYYLFRDFFGYGLIDPLMEDTNVEDISCDGYNIPIFIYHQKYGNVETNIVLDQEKLDRMVLRLTQRSGKHISIANPIVDATLPDGSRLQATFGTEVTPRGSSFTIRKFTIEPLTPIDLIEKGTVPSGVLAYLWLAIEHKFSAIVVGETASGKTTTLNAIMMFIPPDAKVVSIEDTREIKLYHENWIAEVTRTGMGEGEIDMYDLLRAALRQRPDYIIVGEVRGREAQTLFQAMSTGHASYSTLHAGDINQMVYRLESEPLKVPRSMLQFLDIALVQTMWVRGNTRLRRTKEVNEILGIDPVDKNLLVNQFVKWDPKEDKHIEVSMPKKLEKMADFLGVSVQEVYDEMLSRKRYLELMLKRGIRNYKEVTRYIHAYYRNPELAMTKMEEGL,soluble
5,MAKNKWQPTKHLGIYEYMTKKGKRYGIRVRYKQGNDYPEINKSGFETIAAAKVYKNNIENLKANKKEYVFTNEKLTLNTWFASYMEMFKKKNKSKDTIANKYSIYNNHLEIPFGNYYLTDISLDIYEDFLREKIKNGYANNSVKAMHKLMKSILNAAVRYEKLEKNRLQFAEIEQLEENEVIELKVLETDEFNVFISACRAFFTKYDFTMIYLAVWGMRRGEVMGVKLKNLTFDDAKQQVRITLDSTRTLRTPEGKGTKTPAGRRILLIDGEGYRLLKYSVEKAVSIAKDHGSVLHQDDFIFRNPTSNRPWAVTRMNDLLRKLEKEYDIKVYPHLLRHNFNTQALLAGANSNDLRKFIGHKNSSMTDHYSHATDEGREKLMNTMKDRLSGI,not soluble
6,MAKRFTLKDAEELYLVPHWSGGFFRVGEKGDLEVTPLGPKGPAASLLEIVEALRDEGRPLPLVLRFPQILEARVRDLNEAFLEAMAKYGYQGTYRGVYPVKVNQRRLVLETVARAGRPYHLGLEAGSKPELALILAQDLSEEALITTNGFKDDDFVRLALMGRKLGRNVVITLEKFAELFRVLRLSKELGVKPLLGIRYKLKAKGAGQWEASGGENAKFGLTTPEIVRAVEVLQEEGLLDALVMLHAHIGSQVTDIRRIKAAVREAAQTYVQLRKLGAPLRYLNLGGGLAVDYDGSKTNFYASANYTLSEYAENLVYVTKEVVEAQGEPHPILVTESGRAITAYHEVLVLQVIDVIAPPGEARPSPPPPEAHPLVKELWESLQSLSPKNFQEVYHDAFADKETLQTLYDLGLVSLRDRALAEEIFYHIARRVQTIAQNLPYVPDELEDLEKLLADKLVCNFSVFQSLPDAWAIHQLFPVVPLSRLLEPPTRRATLVDISCDSDGKMDRFIDLHDVRQTLPVHPVRPGEPYYLGVFLVGAYQDVLGSNHNLFGQVGEAHVRVEEEGFAIERFVGGETAERVIEKMGFTARELMLGVERLVRQSRLSPVEKGAFLERYARELQGYTYLED,soluble
7,MAKRGRPCGFDREQALRRALDVFWEAGYEGVTMAALKEAMGGICAPSMYAAYGSKEALFRSAVELYLSQECQLSKGAFALPTARESIAALLESAAVSYTTEGKPRGCLVDLSTTNFSPANKGVEDYLRDHRRRAARLLRERFARGVADGDVPAGADLDALTSFYSSVLQGLSIQARDGASRQQLLAIGRCAMAAWDSLLAVEAA,not soluble
8,MAKRKLTQNQTRRIQSNNAKTLHRHKKKEIEWSDEMLGESQEGVVVTRYSIHADVENEQGEIYRCNLRRTLSSLVVGDKVVWRKGNEQLQGVSGVIEAIHPRENEISRPDYYDGLKPIAANIDRIIIVSAVLPTLSLNIIDRYLVVCEIAGITPLIVLNKVDLLAQEQRQEIEDQLKIYQDIGYEILMISAKSGENMEKLTALLAQGTAIFVGQSGVGKSSLINHILPSVNAQVGDVSETSGLGQHTTTSSRLYHLPQGGNLIDSPGIREFGLWHLDAEQITKGYREFQYVLGTCKFRDCKHLSDPGCALREAVEQGKISPVRYDNYHRLIESLSETKSQRHFSLV,not soluble
9,MAKRVYLLSEARGLSRDLLGGKGHGLAEMAAAGLPVPPAFIVTTEACRQYLKAGEVPGLWGEVRAGMAALEGLTGKRFGRGEGKAPPLLVSVRSGAPVSMPGMMDTVLNLGLTLEGVEALARATGNPRFAWDSLRRLLAMYGEVVLGEGPEVFEGMLSALKAERGVGTDAALGPEDLEELAYRYLRHLEARGTPFPLDPWAQLQGAIEAVFRSWQNPRARTYRRIYGIPEDLGTAVVVQAMVFGNLGEDSGTGVGFTRNPATGEKGLYGEYLRNAQGEDVVAGVRTPEPLERLKGYAPGLYEELLQVAERLERHFRDMQDFEFTVERGRLFLLQTRAGKRTAQAAVRIAVEMAEEGLISREEAVMRVEANALPGLLRPSVDRDQAPRPLLKGLPASPGAAVGHAAFTNEAVERFHAQGLPAVLVRPETTPEDITGMYLAKGILTARGGLTSHAAVVARGLGVPAVVGAEALRVFPGEGRALAEGVEIREGDLLTLDGGTGEVYLGAVPLVEAGGEALLEKLLSWAEPHRRLGVRANADTPEDAQRARAFGAEGIGLCRTEHMFFREDRLPWVRRLILAETPEEEALALERLFHFQKEDFKEILRAMDGLPVTVRLLDPPLHEFLPPLEALARRAEEGDEEAGRLLRRAEALKEANPMLGFRGARLLLLRPGVFRMQLRALLEAARELKEAGHDPRPEVMVPLVADPKEVERARALAEELFREYGPIPFGTMVETPRAALLAAEIAPLVDFFSFGTNDLTQMAFGLSRDDAGKFLPRYVEEGLFPFDPTERLDEKGVGRLLRMAAEEGRKANPRLKLGLCGEHGGEAGSVRFVADLLDYTSASPFRVLTARLAAAQAGLSRALKPA,soluble
10,MAKWVYKFEEGNASMRNLLGGKGCNLAEMTILGMPIPQGFTVTTEACTEYYNSGKQITQEIQDQIFEAITWLEELNGKKFGDTEDPLLVSVRSGARASMPGMMDTILNLGLNDVAVEGFAKKTGNPRFAYDSYRRFIQMYSDVVMEVPKSHFEKIIDAMKEEKGVHFDTDLTADDLKELAEKFKAVYKEAMNGEEFPQEPKDQLMGAVKAVFRSWDNPEAIVYRRMNDIPGDWGTAVNVQTMVFGNKGETSGTGVAFTRNPDTGEKGIYGRYLINAQGEDVVAGVRTPQPITQLENDMPDCYKQFMDLAMKLEKHFRDMQDMEFTIEEGKLYFLQTRNGKRTAPAALQIACDLVDEGMITEEEAVVRIEAKSLDQLLHPTFNPAALKAGEVIGSALPASPGAAAGKVYFTADEAKAAHEKGERVILVRLETSPEDIEGMHAAEGILTVRGGMTSHAAVVARGMGTCCVSGCGEIKINEEAKTFELGGHTFAEGDYISLDGSTGKIYKGDIETQEASVSGSFERIMVWADKFRTLKVRTNADTPEDTLNAVKLGAEGIGLCRTEHMFFEADRIMKIRKMILSDSVEAREEALNELIPFQKGDFKAMYKALEGRPMTVRYLDPPLHEFVPHTEEEQAELAKNMGLTLAEVKAKVDELHEFNPMMGHRGCRLAVTYPEIAKMQTRAVMEAAIEVKEETGIDIVPEIMIPLVGEKKELKFVKDVVVEVAEQVKKEKGSDMQYHIGTMIEIPRAALTADAIAEEAEFFSFGTNDLTQMTFGFSRDDAGKFLDSYYKAKIYESDPFARLDQTGVGQLVEMAVKKGRQTRPGLKCGICGEHGGDPSSVEFCHKVGLNYVSCSPFRVPIARLAAAQAALNNK,soluble
11,MALADISGYLDVLDSVRGFSYLENAREVLRSGEARCLGNPRSEPEYVKALYVIGASRIPVGDGCSHTLEELGVFDISVPGEMVFPSPLDFFERGKPTPLVRSRLQLPNGVRVWLKLEWYNPFSLSVKDRPAVEIISRLSRRVEKGSLVADATSSNFGVALSAVARLYGYRARVYLPGAAEEFGKLLPRLLGAQVIVDPEAPSTVHLLPRVMKDSKNEGFVHVNQFYNDANFEAHMRGTAREIFVQSRRGGLALRGVAGSLGTSGHMSAAAFYLQSVDPSIRAVLVQPAQGDSIPGIRRVETGMLWINMLDISYTLAEVTLEEAMEAVVEVARSDGLVIGPSGGAAVKALAKKAAEGDLEPGDYVVVVPDTGFKYLSLVQNALEGAGDSV,soluble
12,MALAGAEVVVKMTPKSVAHVFKKEMSSLHTSLLHLKPSPFQATYLGLEMTIDHLQVVDFKMPKLSYETSASQSHMTFKLLGGSARLLGQYSAVYKTKREGQFEMIFEHFHMSVPVKRTALTKFTVASDECTLEVDESMITMSPVLPEQISAKIKSDLLDQLKEAACSNATQFFSKLNSHLIHFAEATDISQGGHPSHIDVELHFQNPTSEDDTAIHVDVTESVVNAELSKLYSSANTRFIWNDVPEIKELLKSCKTTECRFIEDGDIVSSFFDRPSIRIQSDNTVSLRLPLSTSLTTTNGKELFRIQTEVELNLEDIVLEHPENGEVFWSAKFHIKNIRILQTSSSRNFQKFATRMESWIEEHKLFMENLLNTYIQGSLPVHLRSPLAWTHRVHARPIFSTSSLSFHVHPHFSPSLRVLV,not soluble
13,MALFSPYALGATLYMPATRDDIVDVVFGEKIPELRSLVVCLEDAVALIDVDTALLNLRQVLTRIHDRGGRPANGPLLFVRPRDAAMARILNDWPLMAHVDGFVVPKLSLKSLTSWEEAVTNPALALMPTLETPEVFNPTAMVELGQALKASLHERIIALRIGGNDLMGCLGLRRNPAMTLYSTPMGYVIPMLAGVMGAQGFALTAPVFEQLATPDILEQELALDITNGLVGKTAIHPSQVNIIQNALRVSLEDMNSARMILNSVAPAVFKYNDAMCEPATHYKWATHIMERAKWHGVLPTPASIMDASIRLAEAVSLEHHHHHH,soluble
14,MALHQRMFSGNKINIVRKNHPLFLGYLNEQLCAYASAQLSQKEGRLLYLGVDEKYRQQGIATALMAQVWNFLHDSCQDKITLVQSDKAQAAGKLYKKLGFKTIRRLLSAQLIVN,not soluble
15,MALLAEHLLRPLPADKQIETGPFLEAVSHLPPFFDCLGSPVFTPIKADISGNITKIKAVYDTNPTKFRTLQNILEVEKEMYGAEWPKVGATLALMWLKRGLRFIQVFLQSICDGERDENHPNLIRVNATKAYEMALKKYHGWIVQKIFQAALYAAPYKSDFLKALSKGQNVTEEECLEKVRLFLVNYTATIDVIYEMYTRMNAELNYKV,soluble
16,MALLGPKEQEIVRERLANLTRDVEMVLFTDSSTLIAPGKEPCLYCKETKQLLEELSALSDKLHLVVYDLATPEGREKAGAYKVEAAPTLILREKGSEAINLRYRGIPAGYEFASLLEDIEMLGRDGHGLPENVVQELNDLPEEVVLQVFVTPTCPYCPQAVRTAHRLAYASPKVWGEMIEANEFPALSDRYRIHGVPDTIINHGKERVLGAQPLSQFLQAIRKAVGVRA,soluble
